Publication PMC7117682

Tests used:
[1] = target: CD47 naturally expressed on CD47(+) Jurkat T lymphoma cells (human (endogenous in Jurkat)) (UniProt Q08722); test: laser scanning cytometry (LSC) on cells; competition on live CD47(+) Jurkat cells, 384-well, homogeneous: a fixed concentration of SIRPα-biotin (20 nM) co-incubated with a titration of the competitor or inhibitor, neutravidin-Alexa488
[2] = target: CD47 naturally expressed on CD47(+) Jurkat T lymphoma cells (human (endogenous in Jurkat)) (UniProt Q08722); test: laser scanning cytometry (LSC) on cells; titration of SIRPα-biotin on live DRAQ5-labelled Jurkat cells, 384-well, homogeneous (no wash), HEPES buffer (10 mM HEPES pH 7.5, 0.15 M NaCl), room temperature, neutravidin-Alexa488 0.5 μg/mL; SIRPα presented as a multimer on tetrameric neutravidin (avidity)

Sequence of CD47 naturally expressed on CD47(+) Jurkat T lymphoma cells (human (endogenous in Jurkat)) (Q08722 19-323): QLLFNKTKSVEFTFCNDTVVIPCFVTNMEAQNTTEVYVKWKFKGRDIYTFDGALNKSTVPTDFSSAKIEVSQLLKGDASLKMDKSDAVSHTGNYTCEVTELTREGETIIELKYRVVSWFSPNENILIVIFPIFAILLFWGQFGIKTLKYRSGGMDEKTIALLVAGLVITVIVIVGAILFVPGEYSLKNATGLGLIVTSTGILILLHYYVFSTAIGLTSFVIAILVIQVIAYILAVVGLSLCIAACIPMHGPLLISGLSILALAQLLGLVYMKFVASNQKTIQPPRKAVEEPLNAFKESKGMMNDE

Row | IC50 [1] [nM] | EC50 [2] [nM] | fold more potent than SIRPαV1 [2] [fold] | Substance
1 | 3000 |  |  | SIRPα variant 2, non-biotin conjugated (cold) (domain or fragment)
2 |  | 16 | 2 | SIRPα variant 2, biotin-conjugated (SIRPα-Avi-biotin d1 construct) (domain or fragment)
